Assay [1] addresses T1, recombinant human (rh) CTLA4 (human, UniProt P16410 36-161, limits assumed).
T1 construct: Recombinant protein; also called human CTLA4; CD152
T1 sequence (looked up): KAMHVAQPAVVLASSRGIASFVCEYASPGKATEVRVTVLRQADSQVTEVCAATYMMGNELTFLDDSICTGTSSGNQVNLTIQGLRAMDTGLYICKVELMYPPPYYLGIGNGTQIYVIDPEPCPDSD
Nature of the assay: competitive ELISA. (An ELISA detects its analyte on a solid surface through an enzyme-linked reagent.)

Assay [2] deals with T2, recombinant human (rh) CHI3L1 (human, UniProt P36222 22-383).
T2 construct: Recombinant protein; also called human CHI3L1; chitinase 3-like-1
Nature of the assay: competitive ELISA.

T2 sequence (P36222 22-383 limits assumed): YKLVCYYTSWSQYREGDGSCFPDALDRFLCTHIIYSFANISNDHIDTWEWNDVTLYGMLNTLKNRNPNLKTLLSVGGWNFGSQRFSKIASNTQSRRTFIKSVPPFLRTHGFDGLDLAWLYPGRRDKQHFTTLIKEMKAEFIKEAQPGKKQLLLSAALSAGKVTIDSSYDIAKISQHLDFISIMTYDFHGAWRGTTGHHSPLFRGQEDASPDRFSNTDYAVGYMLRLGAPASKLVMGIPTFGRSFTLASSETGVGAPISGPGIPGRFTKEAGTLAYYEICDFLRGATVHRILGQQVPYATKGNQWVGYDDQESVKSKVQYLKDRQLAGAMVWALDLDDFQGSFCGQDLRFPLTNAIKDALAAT

B1: CHI3L1-LC-CTLA4 bispecific antibody (ScFv-CTLA4 attached to the light chain of the anti-human CHI3L1 antibody FRG) (bispecific antibody)
chain 1: QVQLQQSGAELMKPGASVKISCRTTGYTFSSYWIEWVKQRPGHGLEWIGEILPGSGSTNCNEKFKGKATFTADTSSNTAYMQLSSLTSEDSAVYYCVRSDDYYDYWGQGTTLTVSS
chain 2: DVLMTQTPLSLPVSLGDQASISCRSSQTIVHSNGNTYLEWYLQKPGQSPKLLIYKVSNRFSGVPDRFSGSGSGTDFTLKISRVEAEDLGVYYCFQGSHVPPTFGGGTKLEIKVEGGSGGSGGSGGSGGVDQVQLVQSGAEVVQPGRSLRLSCAASGFTFSSYTMHWVRQAPGKGLEWVTFISYDGNNKYYADSVKGRFTISRDNSKNTLYLQMNSLRSEDTAVYYCARTGWLGPFDYWGQGTLVTVSSGGGGSGGGGSGGGGSGGGGSEIVLTQSPATLSLSPGERATLSCRASQSVGSSYLAWYQQKPGQAPRLLIYGAFSRATGIPARFSGSGSGTDFTLTISSLEPEDFAVYYCQQYGSSPWTFGQGTKVEIK
Regarding B1, in assay [1], the Kd – broadly, the concentration at which binding is half-saturated – was around 1 nM and the “limit of detection (LOD)” value worked out at 2 ng/mL. Further, in assay [2], the Kd was around 1 nM and the “limit of detection (LOD)” value came to 2 ng/mL.

B2: anti-human CHI3L1 antibody (called "CHI3L1" or "FRG") (antibody, V domains shown)
VH: QVQLQQSGAELMKPGASVKISCRTTGYTFSSYWIEWVKQRPGHGLEWIGEILPGSGSTNCNEKFKGKATFTADTSSNTAYMQLSSLTSEDSAVYYCVRSDDYYDYWGQGTTLTVSS
VL: DVLMTQTPLSLPVSLGDQASISCRSSQTIVHSNGNTYLEWYLQKPGQSPKLLIYKVSNRFSGVPDRFSGSGSGTDFTLKISRVEAEDLGVYYCFQGSHVPPTFGGGTKLEIK
For the molecule B2, in assay [2], the Kd is around 1 nM and the “limit of detection (LOD)” value stood at 2 ng/mL.

B3: CHI3L1-HC-CTLA4 bispecific antibody (ScFv-CTLA4 attached to the heavy chain of the anti-human CHI3L1 antibody FRG) (bispecific antibody)
chain 1: QVQLQQSGAELMKPGASVKISCRTTGYTFSSYWIEWVKQRPGHGLEWIGEILPGSGSTNCNEKFKGKATFTADTSSNTAYMQLSSLTSEDSAVYYCVRSDDYYDYWGQGTTLTVSSVEGGSGGSGGSGGSGGVDQVQLVQSGAEVVQPGRSLRLSCAASGFTFSSYTMHWVRQAPGKGLEWVTFISYDGNNKYYADSVKGRFTISRDNSKNTLYLQMNSLRSEDTAVYYCARTGWLGPFDYWGQGTLVTVSSGGGGSGGGGSGGGGSGGGGSEIVLTQSPATLSLSPGERATLSCRASQSVGSSYLAWYQQKPGQAPRLLIYGAFSRATGIPARFSGSGSGTDFTLTISSLEPEDFAVYYCQQYGSSPWTFGQGTKVEIK
chain 2: DVLMTQTPLSLPVSLGDQASISCRSSQTIVHSNGNTYLEWYLQKPGQSPKLLIYKVSNRFSGVPDRFSGSGSGTDFTLKISRVEAEDLGVYYCFQGSHVPPTFGGGTKLEIK
Turning to B3, the Kd in assay [1] and in assay [2] was around 1 nM throughout. Also, the “limit of detection (LOD)” value in assay [1] and in assay [2] was 2 ng/mL throughout.

These data come from patent US20230046834A1 (BROWN UNIVERSITY, published 2023).
